Experimental data: patent US7897573B2, “Selective VPAC2 receptor peptide agonists” (priority 2005, dated 2011)

Experiments:
Human VPAC1 Receptor = target: T1, Human VPAC1 Receptor (Homo sapiens, UniProt P32241); assay: Filter binding assay, 125I-labeled VIP, membranes of cells transiently transfected with human VPAC1; conditions: 125I-labeled VIP tracer
T1 construct: expressed in transfected cells
T1 sequence (P32241 31-457): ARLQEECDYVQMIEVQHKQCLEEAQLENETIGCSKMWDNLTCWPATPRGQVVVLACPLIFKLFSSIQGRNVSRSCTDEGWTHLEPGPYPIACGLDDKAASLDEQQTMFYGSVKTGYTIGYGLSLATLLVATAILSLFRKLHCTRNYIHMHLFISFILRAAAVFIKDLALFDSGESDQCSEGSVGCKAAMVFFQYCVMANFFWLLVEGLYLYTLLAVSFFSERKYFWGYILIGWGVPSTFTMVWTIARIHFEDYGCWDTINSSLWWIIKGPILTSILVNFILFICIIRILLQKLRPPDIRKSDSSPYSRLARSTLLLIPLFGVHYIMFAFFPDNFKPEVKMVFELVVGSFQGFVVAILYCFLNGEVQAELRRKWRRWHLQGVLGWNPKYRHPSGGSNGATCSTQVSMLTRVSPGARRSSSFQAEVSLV
Protocol: (§1) For this assay, the solutions and equipment include:
(§2) Presoak solution: 0.5% Polyethyleneamine in Aqua dest
(§3) Buffer for flushing filter plates: 25 mM HEPES pH 7.4
(§4) Blocking buffer: 25 mM HEPES pH 7.4; 0.2% protease free BSA
(§5) Assay buffer: 25 mM HEPES pH 7.4; 0.5% protease free BSA
(§6) Dilution and assay plate: PS-Microplate, U form
(§7) Filtration Plate Multiscreen FB Opaque Plate; […] Type B Glasfiber filter
(§8) In order to prepare the filter plates, the presoak solution is aspirated by vacuum filtration. The plates are flushed twice with 200 μL flush buffer. 200 μL blocking buffer is added to the filter plate. The filter plate is then incubated with 200 μL presoak solution for 1 hour at room temperature.
(§9) The assay plate is filled with 25 μL assay buffer, 25 μL membranes (2.5 μg) suspended in assay buffer, 25 μL agonist in assay buffer, and 25 μL tracer (about 40000 cpm) in assay buffer. The filled plate is incubated for 1 hour with shaking.
(§10) The transfer from assay plate to filter plate is conducted. The blocking buffer is aspirated by vacuum filtration and washed two times with flush buffer. 90 μL is transferred from the assay plate to the filter plate. The 90 μL transferred from assay plate is aspirated and washed three times with 200 μL flush buffer. The plastic support is removed. It is dried for 1 hour at 60° C. 30 μL Microscint is added. The count is performed.

Human PAC1 Receptor = target: T2, Human PAC1 Receptor (Homo sapiens, UniProt P41586); assay: Filter binding assay, 125I-labeled PACAP-27, membranes of cells transiently transfected with human PAC1; conditions: 125I-labeled PACAP-27 tracer
T2 construct: expressed in transfected cells
T2 sequence (P41586 21-468): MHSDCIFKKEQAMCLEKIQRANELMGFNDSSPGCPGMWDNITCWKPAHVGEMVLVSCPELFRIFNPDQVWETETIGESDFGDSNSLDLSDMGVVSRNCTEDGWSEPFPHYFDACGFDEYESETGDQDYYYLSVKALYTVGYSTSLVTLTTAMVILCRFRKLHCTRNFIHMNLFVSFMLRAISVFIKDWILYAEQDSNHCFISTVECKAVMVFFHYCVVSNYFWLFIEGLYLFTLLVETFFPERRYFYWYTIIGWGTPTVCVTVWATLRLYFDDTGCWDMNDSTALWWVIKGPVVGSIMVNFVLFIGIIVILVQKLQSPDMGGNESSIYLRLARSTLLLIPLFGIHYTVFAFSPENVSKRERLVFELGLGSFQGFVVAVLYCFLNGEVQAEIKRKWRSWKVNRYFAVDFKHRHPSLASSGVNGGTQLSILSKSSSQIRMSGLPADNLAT
Protocol: as §1, §2, §3, §4, §5, §6, §7, §8, §9, §10

[1] = Pharmacokinetic profiles of PEGylated peptides in Fisher 344 rats; type: in vivo, rat; conditions: 100 μg agonist/kg, plasma RIA, mean N = 3
Protocol: Pharmacokinetic profiles of PEGylated peptides. Healthy Fisher 344 rats (3 animals per group) were injected with 100 μg agonist/kg (agonist amount based on peptide content and dissolved in PBS buffer). Blood samples were drawn 3, 12, 24, 48, 72, 96 and 168 hour post dosing and the peptide content in plasma was analysed by a radio-immunoassay (RIA) directed against the N-terminus of the peptide. PK parameters were then calculated using a model-independent method (WinNonlin Pro, Pharsight Corp., Mountain View, Calif., USA).

[2] = Rat serum stability study (DiscoveRx cAMP read-out on CHO-VPAC2 cells); conditions: EC50, 4° C./EC50, 37° C., values >100% may represent release of intact peptide from the PEG conjugate; for 24 h stab (%): 24 h in rat serum at 37° C.
Protocol: In order to determine the stability of VPAC2 receptor peptide agonists in rat serum, CHO-VPAC2 cells clone #6 (96 well plates/50,000 cells/well and 1 day culture), PBS 1× (Gibco), the peptides for the analysis in a 100 μM stock solution, rat serum from a sacrificed normal Wistar rat, aprotinin, and a DiscoveRx assay kit are obtained. The rat serum is stored at 4° C. until use and is used within two weeks.
The aliquot is stored with aprotinin at 4° C. The aliquot is stored without aprotinin at 37° C. The aliquots are incubated for 24 or 72 hours.
On Day 1, after incubation of the aliquots prepared on day 0 for 24 or 72 hours, an incubation buffer containing PBS+1.3 mM CaCl2, 1.2 mM MgCl2, 2 mM glucose, and 0.25 mM IBMX is prepared. A plate with 11 serial 5× dilutions of peptide for the 4° C. and 37° C. aliquot is prepared for each peptide studied. […] The plate(s) are washed with cells twice in incubation buffer. The plates are allowed to hold 50 μL incubation media per well for 15 minutes. 50 μL solution per well is transferred to the cells from the plate prepared with 11 serial 5× dilutions of peptide for the 4° C. and 37° C. aliquot for each peptide studied, using the maximal concentrations that are indicated by the primary screen, in duplicate. This step dilutes the peptide concentration by a factor of two. The cells are incubated at room temperature for 30 minutes. The supernatant is removed. 40 μL/well of the DiscoveRx antibody/extraction buffer is added. The cells are incubated on the shaker (300 rpm) for 1 hour. Normal procedure with the DiscoveRx kit is followed. cAMP standards are included in column 12. EC50 values are determined from the cAMP assay data.

C6-HSDAVFTEQY(OMe)TOrnLRAibQLAAbuAibOrnY(OMe)LQSIOrnOrnGGPSSGAPPPC(PEG20K)C(PEG20K)-NH2 (HSDAVFTEQYTXLRXQLAXXXYLQSIXXGGPSSGAPPPCC; C6 acyl, non-natural residues, two PEG20K, C-terminal amide; Synthetic sequence PEGylated VPAC2 receptor agonist) [Agonist P582]
IC50 (Human VPAC1 Receptor): > 25000 nM | IC50 (Human PAC1 Receptor): > 25000 nM

C6-HSDAYFTEQY(OMe)TOrnLRAibQLAAbuAibOrnYLQSIOrnK(CO(CH2)2SPEG20K)OrnGGPSSGAPPPC(PEG20K)-NH2 [Agonist P551]
IC50 (Human VPAC1 Receptor): > 25000 nM | IC50 (Human PAC1 Receptor): > 25000 nM

C6-HSDAVFTEQY(OMe)TOrnLRAibQLAAbuAibOrnYLQAibIOrnC(PEG40K)OrnGGPSSGAPPPS-NH2 (HSDAVFTEQYTXLRXQLAXXXYLQXIXCXGGPSSGAPPPS; C6 acyl, PEG40K on Cys, C-terminal amide; Synthetic sequence PEGylated VPAC2 receptor agonist) [Agonist P537]
IC50 (Human VPAC1 Receptor): > 25000 nM | IC50 (Human PAC1 Receptor): > 25000 nM

C6-HSDAVFTEQY(OMe)TOrnLRAibQC(PEG40K)AAbuAibOrnYLQAibIOrnOrnGGPSSGAPPPS-NH2 (HSDAVFTEQYTXLRXQCAXXXYLQXIXXGGPSSGAPPPS; C6 acyl, PEG40K on Cys, C-terminal amide; Synthetic sequence PEGylated VPAC2 receptor agonist) [Agonist P545]
IC50 (Human VPAC1 Receptor): > 25000 nM | IC50 (Human PAC1 Receptor): > 25000 nM | AUC0-last [1]: 12737 ng·h/mL | Cl/F [1]: 0.12 mL/min/kg | Cmax [1]: 139 ng/mL | Tmax [1]: 72 h | T½ [1]: 43 h

C6-HSDAVFTEQY(OMe)TOrnLRAibQLAAbuAibOrnYLQAibIOrnOrnC(PEG20K)GGPSSGAPPPC(PEG20K)-NH2 (HSDAVFTEQYTXLRXQLAXXXYLQXIXXCGGPSSGAPPPC; C6 acyl, non-natural residues, two PEG20K, C-terminal amide; Synthetic sequence PEGylated VPAC2 receptor agonist) [Agonist P580]
IC50 (Human VPAC1 Receptor): > 25000 nM | IC50 (Human PAC1 Receptor): > 25000 nM

C6-HSDAVFTEQY(OMe)TOrnLRAibQLAAbuAibOrnYLQAibIOrnC(PEG20K)OrnGGPSSGAPPPC(PEG20K)-NH2 (HSDAVFTEQYTXLRXQLAXXXYLQXIXCXGGPSSGAPPPC; C6 acyl, two PEG20K, C-terminal amide; Synthetic sequence PEGylated VPAC2 receptor agonist) [Agonist P553]
IC50 (Human VPAC1 Receptor): > 25000 nM | IC50 (Human PAC1 Receptor): > 25000 nM

C6-HSDAVFTEQY(OMe)TOrnLRAibQLAAbuAibOrnYAibQSIOrnOrnGGPSSGAPPPC(PEG20K)C(PEG20K)-NH2 (HSDAVFTEQYTXLRXQLAXXXYXQSIXXGGPSSGAPPPCC; C6 acyl, two PEG20K, C-terminal amide; Synthetic sequence PEGylated VPAC2 receptor agonist) [Agonist P521]
AUC0-last [1]: 7633 ng·h/mL | Cl/F [1]: 0.217 mL/min/kg | Cmax [1]: 233 ng/mL | Tmax [1]: 12 h | T½ [1]: 19 h | 72 h stab (%) ([2]; 72 h in rat serum at 37° C.): 294%

C6-HSDAVFTEQY(OMe)TOrnLRC(PEG40K)QVAAAibOrnYLQSIOrnOrnGGPSSGAPPPS-NH2 (HSDAVFTEQYTXLRCQVAAXXYLQSIXXGGPSSGAPPPS; N-terminal C6 acyl, PEG40K on Cys, C-terminal amide; Synthetic sequence PEGylated VPAC2 receptor agonist) [Agonist P483]
IC50 (Human VPAC1 Receptor): > 25000 nM | 24 h stab (%) [2]: 22%

C6-HSDAVFTEQY(OMe)TOrnLRAibQVAAAibK(CO(CH2)2SPEG20K)YLQSIOrnOrnGGPSSGAPPPS-NH2 (HSDAVFTEQYTXLRXQVAAXXYLQSIXXGGPSSGAPPPS; C6 acyl; PEG20K; non-natural residues; amide; Synthetic sequence PEGylated VPAC2 receptor peptide agonist) [Agonist P473]
IC50 (Human VPAC1 Receptor): > 25000 nM | 24 h stab (%) [2]: 86%

C6-HSDAVFTEQY(OMe)TRAibRAibQLAAAibOrnY(OMe)LQSIKAibOrnGGPSSGAPPPC(PEG40K)-NH2 (HSDAVFTEQYTRXRXQLAAXXYLQSIKXXGGPSSGAPPPC; C6 acyl; PEG40K; non-natural residues; amide; Synthetic sequence PEGylated VPAC2 receptor peptide agonist) [Agonist P417]
IC50 (Human VPAC1 Receptor): > 25000 nM | 24 h stab (%) [2]: 265%

C6-HSDAVFTEQY(OMe)TOrnLRAibQLAbuAAibOrnYLQSIOrnOrnGGPSSGAPPPC(PEG20K)C(PEG20K)-NH2 (HSDAVFTEQYTXLRXQLXAXXYLQSIXXGGPSSGAPPPCC; C6 acyl, non-natural residues, two PEG20K, C-terminal amide; Synthetic sequence PEGylated VPAC2 receptor agonist) [Agonist P590]
IC50 (Human VPAC1 Receptor): > 25000 nM | IC50 (Human PAC1 Receptor): > 25000 nM

C6-HSDAVFTEQY(OMe)TOrnLRAibQLAAbuAibOrnYLQSIOrnOrnC(PEG20K)GGPSSGAPPPC(PEG20K)-NH2 (HSDAVFTEQYTXLRXQLAXXXYLQSIXXCGGPSSGAPPPC; C6 acyl, two PEG20K, C-terminal amide; Synthetic sequence PEGylated VPAC2 receptor agonist) [Agonist P572]
IC50 (Human VPAC1 Receptor): > 25000 nM | IC50 (Human PAC1 Receptor): > 25000 nM

C6-HSDAVFTEQY(OMe)TOrnLRAibQLAAbuAibOrnYLQSIOrnC(PEG40K)OrnGGPSSGAPPPS-NH2 (HSDAVFTEQYTXLRXQLAXXXYLQSIXCXGGPSSGAPPPS; C6 acyl, PEG40K on Cys, C-terminal amide; Synthetic sequence PEGylated VPAC2 receptor agonist) [Agonist P539]
AUC0-last [1]: 4013 ng·h/mL | Cl/F [1]: 0.417 mL/min/kg | Cmax [1]: 102 ng/mL | Tmax [1]: 24 h | T½ [1]: 15 h | 24 h stab (%) [2]: 123%

C6-HSDAVFTEQY(OMe)TOrnLRAibQLAAAibOrnYLQSIOrnOrnC(PEG40K)GGPSSGAPPPS-NH2 (HSDAVFTEQYTXLRXQLAAXXYLQSIXXCGGPSSGAPPPS; C6 acyl, PEG40K on Cys, C-terminal amide; Synthetic sequence PEGylated VPAC2 receptor agonist) [Agonist P560]
24 h stab (%) [2]: 192%
